Measured values: the supplement of paper PMC10567573
± gives the standard deviation.

Test: protein stability index of a GFP-peptide fusion (GPS, HEK-293T) (PSI 1-6); higher = more stable
[1] = treatment: DMSO, c terminus: a fixed tail appended
[2] = treatment: MLN4924 1 uM, 8 h, c terminus: a fixed tail appended
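Also: 24-mer peptide tiles fused after GFP, lentivirally expressed, FACS-sorted into six equal bins by GFP/DsRed ratio, decoded by Illumina sequencing, PSI is the read-weighted mean bin number.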

Sequence	protein stability index [1]	protein stability index [2]	protein stability index (treatment: DMSO, c terminus: native)	protein stability index (treatment: MLN4924 1 uM, 8 h, c terminus: native)
LVDKETDKRHVEQKIQFKRETASL [PDZK1]	4.72 ± 0.63	4.52 ± 0.92		
LVEKGVLTTEKQNFLLFDMTTHPL [GOLPH3]	2.51 ± 0.27	2.5 ± 0.3		
LVNPLDPRNADKIRVKIADLGNAC [SRPK2]	2.92 ± 0.18	2.97 ± 0.22		
LVSDDPRCRLSLDDRVLSSLVRDT [POP5]	3.44 ± 0.24	3.68 ± 0.12		
LWQFLLELLTDKSCQSFISWTGDG [ETS1]	2.96 ± 0.47	3.13 ± 0.46		
LYAVGGHDGSSYLNSVERYDPKTN [KLHL20]	3.72 ± 0.22	3.79 ± 0.23		
LYFHHYFPAMLFSSMLTGILWDTL [POMT2]	2.84 ± 0.34	3.21 ± 0.23		
LYGTKGNYTSRVWEYSSSIQNSDN [TRIM29]	3.04 ± 0.2	2.83 ± 0.26		
LYVRRVFIMDSCDELIPEYLNFIR [HSP90AB1]	2.37 ± 0.58	2.68 ± 0.86		
MADERKDEAKAPHWTSAPLTEASA [MAP2]	5.22 ± 0.43	5.41 ± 0.19		
MAMPNGFHEDGPQGPGGDEDDDEE [PSD2]	5.41 ± 0.3	5.47 ± 0.18		
MDVMPGEGDLPQMEVGSGSRELSL [EID1]	4.8 ± 0.2	5.06 ± 0.17		
MEIFMEEMREIRRKLRELQLRNCL [BEX3]	3.28 ± 0.41	2.52 ± 0.97		
MEKMLAGCFLLILGQIVLLPAEAR [MATN2]	3.46 ± 0.56	3.01 ± 0.3		
MEKYERIRVVGRGAFGIVHLCLRK [NEK8]	2.09 ± 0.21	2.33 ± 0.27		
MELKVGDFGLAARLEPLEHRRRTI [PLK2]	3.23 ± 0.16	3.43 ± 0.25		
MEVLPCSRVAHIERTRKPYNNDID [GALNT9]	2.46 ± 0.26	2.44 ± 0.28		
MHSFPPLLLLLFWGVVSHSFPATL [MMP1]	3.14 ± 0.31	3.12 ± 0.25		
MKRDVQEGQARCLAHLGRHMEALE [C8orf76]	3.66 ± 0.22	3.97 ± 0.35		
MLNMWKVRELVDKATNVVMNYSEI [CLINT1]	2.4 ± 0.17	2.23 ± 0.22		
MLRTGLGVIRMWADEGSRNSRFQM [NETO1]	2.5 ± 0.11	2.39 ± 0.4		
MMDLRNTPAKSLDKFIEDYLLPDT [OAS1]	3.04 ± 0.16	3.15 ± 0.28		
MNYSEIESKVREATNDDPWGPSGQ [CLINT1]	4.84 ± 0.22	4.96 ± 0.14		

Sequence	protein stability index [1]	protein stability index [2]	protein stability index (treatment: DMSO, c terminus: native)	protein stability index (treatment: MLN4924 1 uM, 8 h, c terminus: native)
MPNGCSDDVLPWRRTAENKLDTKY [DCTD]	4 ± 0.1	3.87 ± 0.29		
MSAPGSPDQAYDFLLKFLLVGDRD [RAB40A]	2.27 ± 0.23	2.42 ± 0.38		
MSRMQSKEYPVVPRSTVRQKVASN [TBX5]	4.25 ± 0.24	4.15 ± 0.087		
MSTEEQYRIRQVNIYYYLEDDSMS [EFHC1]	2.19 ± 0.26	2.13 ± 0.3		
MSVLWLEHDRETRMQYAPDLMKRL [KLHL14]	2.35 ± 0.11	2.45 ± 0.15		
MSWAKLARQATNLKVNFFFERIMK [FBXO39]	2.34 ± 0.19	2.22 ± 0.35		
MTAPAGPRGSETERLLTPNPGYGT [MCOLN1]	4.23 ± 0.22	4.2 ± 0.42		
MVEDDSRKEMTAACTPRRRIINLT [MLH1]	3.95 ± 0.059	3.93 ± 0.29		
NAIRVHHALATRASDYSKKSNVLK [PSD2]	3.46 ± 0.31	3.5 ± 0.12		
NCKLATRAKDFLPADIQAQFAISR [SNX8]	2.45 ± 0.21	2.73 ± 0.52		
NDIPHSIPLEQGSSCNGPGQTTGH [FAN1]	5.24 ± 0.18	5.23 ± 0.1		
NDLDRIAQPNYIPTQQDVLRTRVK [GNAI1]	4.81 ± 0.13	4.92 ± 0.15		
NDMSPSNNVVPIHVPPTTENKPKV [RAB11A]	5.42 ± 0.12	5.33 ± 0.19		
NELQHDLDVVSDALAKVSRKPSI [TPH1]			5.17 ± 0.39	5.33 ± 0.11
NGHTDVADVLLQAGADLEHESEGG [ANKRD17]	5.37 ± 0.17	5.28 ± 0.048		
NGRGELVESLKRFCASTRLPPTPL [AUP1]	3.18 ± 0.38	2.94 ± 0.5		
NGRHKIPESQFPEFSTSLFSGSLE [SRPK2]	3.66 ± 0.22	3.8 ± 0.19		
NHANGLTLVSRAHQLVMEGYNWCH [PPP2CA]	2.6 ± 0.16	2.49 ± 0.29		
NHCMLSPSSSGHLADSDTLSSAEE [C18orf25]	5.36 ± 0.19	5.4 ± 0.098		
NHGYAEPAAGRELPPDMTVVPGDH [KCNA3]	5.21 ± 0.14	5.24 ± 0.24		
NHVAVAARYAQQKHRIRRVLIVDW [HDAC6]	2.34 ± 0.72	2.09 ± 0.27		
NISGLRFETQLKTLCQFPETLLGD [KCNA3]	2.89 ± 0.26	3.03 ± 0.23		
